PMC4506495
Substitutions are numbered along the chain they refer to.

Legend:
[1] = biological target: Magnetospirillum gryphiswaldense MSR-1 Fur C9L/M14L/M16V-triple mutant (Magnetospirillum gryphiswaldense MSR-1); test: crystal structure; Fur-Mn2+ with the 25-bp feoAB1 operator dsDNA (three base-pair mutations), 2.6 Å (SeMet form 2.82 Å)
[2] = biological target: Magnetospirillum gryphiswaldense MSR-1 Fur C9L/M14L/M16V-triple mutant (Magnetospirillum gryphiswaldense MSR-1); test: crystal structure; holo-Fur with 1 mM MnCl2, 1.9 Å; 10% PEG3000, 0.1 M CHES pH 9.0
[3] = biological target: T1, MgFur E108A/H125A (metal site 2 mutant) E108A;H125A (Magnetospirillum gryphiswaldense MSR-1) (UniProt V6F4Q0); test: SPR; conditions: 1 mM Mn2+, SPR: 20 mM Tris-HCl pH 8.0, 150 mM NaCl, 1 mM MnCl2, 0.005% Tween20, 25 C, EMSA: 40 mM HEPES pH 7.0, 125 mM NaCl, 2 mM FeSO4/MnCl2/EDTA, footprinting: …
T1 sequence: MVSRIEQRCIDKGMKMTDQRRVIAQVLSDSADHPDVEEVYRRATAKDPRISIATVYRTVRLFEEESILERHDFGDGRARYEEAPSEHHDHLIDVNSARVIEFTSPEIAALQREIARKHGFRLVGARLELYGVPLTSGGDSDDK

[4] = biological target: T2, MgFur WT (Magnetospirillum gryphiswaldense MSR-1) (UniProt V6F4Q0); test: SPR; conditions: 1 mM Mn2+, SPR: 20 mM Tris-HCl pH 8.0, 150 mM NaCl, 1 mM MnCl2, 0.005% Tween20, 25 C, EMSA: 40 mM HEPES pH 7.0, 125 mM NaCl, 2 mM FeSO4/MnCl2/EDTA, footprinting: …
T2 sequence: T1 sequence with A108E, A125H

[5] = biological target: T3, MgFur K15A K15A (Magnetospirillum gryphiswaldense MSR-1) (UniProt V6F4Q0); test: SPR; conditions: 1 mM Mn2+, SPR: 20 mM Tris-HCl pH 8.0, 150 mM NaCl, 1 mM MnCl2, 0.005% Tween20, 25 C, EMSA: 40 mM HEPES pH 7.0, 125 mM NaCl, 2 mM FeSO4/MnCl2/EDTA, footprinting: …
T3 sequence: T1 sequence with K15A, A108E, A125H

[6] = biological target: Magnetospirillum gryphiswaldense MSR-1 ferric uptake regulator (Fur), wild type (Magnetospirillum gryphiswaldense MSR-1); test: AUC; analytical ultracentrifugation of apo-Fur in solution
[7] = biological target: Magnetospirillum gryphiswaldense MSR-1 ferric uptake regulator (Fur), wild type (Magnetospirillum gryphiswaldense MSR-1); test: crystal structure; apo-Fur without transition metal ions, 1.55 Å; crystals from (NH4)2SO4, 0.1 M sodium citrate pH 5.5
[8] = biological target: Magnetospirillum gryphiswaldense MSR-1 ferric uptake regulator (Fur), wild type (Magnetospirillum gryphiswaldense MSR-1); test: SEC; size-exclusion chromatography of apo-Fur in solution

Substance: Magnetospirillum gryphiswaldense MSR-1 Fur C9L/M14L/M16V-triple mutant (natural protein)
- stoichiometry N [1]: 2
- stoichiometry N [2]: 2

Substance: TTAATCGCAACTCATTCGCAATTGC (double strand) [feoAB1 operator (SPR)]
- Kd [3]: 272 nM
- Kd [4]: 85 nM
- Kd [5]: 977 nM

Substance: Magnetospirillum gryphiswaldense MSR-1 ferric uptake regulator (Fur), wild type (natural protein)
- stoichiometry N [6]: 2
- stoichiometry N [7]: 2
- stoichiometry N [8]: 2
